Molecular target: T1, Galectin-3 protein (human, UniProt P17931 2-250)
T1 construct: Endogenous antigen in human atheroma tissue sections; also called Gal3
Experiment: double immunofluorescence staining of human endarteriectomy sections (colocalisation with anti-galectin-3 antibody)
Text: FIG. 3: Immunofluorescent staining of human endarteriectomy sections and aortas of ApoE^{-/-} and WT mouse with P3 scFv-Fc or commercial control antibodies. (A) Double immunofluorescence staining of human endarteriectomy sections. […] Size bars: 50 μm. (B) Fluorescent macroscopy of P3 scFv-Fc after ex vivo injection in ApoE^{-/-} mouse and WT mouse. A human IgG was used as a negative control antibody.
Human tissue specimens were provided by Pr DUCASSE Eric, vascular surgeon at CHU Pellegrin. For immunofluorescence stainings, human sections were deparaffinised and rehydrated. After a retrieval step (pH9), slides were blocked with (1) PBS/1% BSA/0.2% Triton X10 followed by (2) 5% goat serum and (3) addition of goat anti human IgG H+L and Fcγ specific diluted at 100 μg/mL. Primary scFv-Fc produced in baculovirus or commercially available antibodies were added overnight at 4° C. Slides were incubated with scFv-Fc diluted at 50 μg/mL in PBS/1% BSA and, as controls, secondary antibody alone or commercial antibodies according to the manufacturer's instructions. […] After 1h incubation, slides were washed in PBS 3 times and mounted with Vectashield (VWR, France).

T1 sequence (P17931 2-250 limits assumed): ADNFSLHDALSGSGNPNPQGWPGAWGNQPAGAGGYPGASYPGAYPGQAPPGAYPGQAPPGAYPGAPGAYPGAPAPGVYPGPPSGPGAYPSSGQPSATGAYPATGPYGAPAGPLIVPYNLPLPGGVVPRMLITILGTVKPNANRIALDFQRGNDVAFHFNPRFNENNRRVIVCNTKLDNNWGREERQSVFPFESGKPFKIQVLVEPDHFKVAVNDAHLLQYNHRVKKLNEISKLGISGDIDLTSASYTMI

B1: P3 scFv-Fc (Fc fusion)
chain: QVQLQQSGPGLVKPSQTLSLTCAISGDSVSSNNFGWNWIRQSPSRGLEWLGRTYYRSKWYNDYAVSVRSRITINPDTSKNQFSLQLNSVTPEDTAVYYCARQGSTYFDYWGQGTLVTVSSEFGGGGSGGGGSGGGGSRDIVMTQSPSSLSASVGDRVTITCRASQTISSSLAWFQQRPGEAPNLLIYSASSLQSGVPSRFSGSGSGTDFTLTISSLQPEDFATYSCQQTYSAPPTFGGGTKLEIK
notes: these probably describe the HEK construct without the 2 extra cysteines; also called scFv-Fc P3; Human P3 scFv-Fc; not shown: human IgG1 Fc domain with 2 extra cysteine residues at the C-terminal end (baculovirus/Sf9 construct)
binding result: binds
